Reference: patent US20020058247A1 (TRIPEP, published 2002)

Legend:
[1] = molecular target: T1, Full length recombinant HBcAg (rHBcAg) encompassing residues 1-183 (hepatitis B virus, UniProt P03146 1-183); test: competition EIA, HBcAg coated 1 ug/ml, peptide 200 ug/ml before mAb 4-2 (competitor); OD of bound mAb
T1 construct: range 1-183; also called hepatitis B virus core antigen

[2] = molecular target: T1, Full length recombinant HBcAg (rHBcAg) …; test: competition EIA, HBcAg coated 1 ug/ml, peptide 12.5 ug/ml before mAb 4-2 (competitor); OD of bound mAb
[3] = molecular target: T1, Full length recombinant HBcAg (rHBcAg) …; test: competition EIA, HBcAg coated 1 ug/ml, peptide 100 ug/ml before mAb 4-2 (competitor); OD of bound mAb
[4] = molecular target: T2, truncated recombinant form of HBeAg containing nine residues of pre-core and the 150 first residues of HBcAg (hepatitis B virus, UniProt P03146 1-150); test: EIA, support-bound peptide, HBeAg 0.67 ug/ml
T2 construct: domain: nine residues of pre-core;range 1-150; also called hepatitis B virus e antigen

[5] = molecular target: T2, truncated recombinant form of HBeAg …; test: EIA, support-bound peptide, HBeAg 5 ug/ml
[6] = molecular target: T1, Full length recombinant HBcAg (rHBcAg) …; test: EIA, peptide coated 25 ug/ml, HBcAg 10 ug/ml
[7] = molecular target: T1, Full length recombinant HBcAg (rHBcAg) …; test: competition EIA, HBcAg coated 5 ug/ml, peptide 12.5 ug/ml together with mAb 4-2 (competitor); OD of bound mAb
[8] = molecular target: T1, Full length recombinant HBcAg (rHBcAg) …; test: EIA, peptide coated 50 ug/ml, HBcAg 10 ug/ml
[9] = molecular target: T2, truncated recombinant form of HBeAg …; test: EIA, support-bound peptide, HBeAg 2.5 ug/ml
[10] = molecular target: T1, Full length recombinant HBcAg (rHBcAg) …; test: EIA, support-bound peptide, HBcAg 1.25 ug/ml
[11] = molecular target: T1, Full length recombinant HBcAg (rHBcAg) …; test: EIA, support-bound peptide, HBcAg 20 ug/ml
[12] = molecular target: T3, non-structural 3 protein (NS3) of the hepatitis C virus (HCV) (hepatitis C virus); test: EIA, support-bound peptide, HCV NS3 control
T3 construct: Control antigen; also called HCV NS3

[13] = molecular target: T1, Full length recombinant HBcAg (rHBcAg) …; test: competition EIA, HBcAg coated 5 ug/ml, peptide 100 ug/ml together with mAb 4-2 (competitor); OD of bound mAb
[14] = molecular target: T1, Full length recombinant HBcAg (rHBcAg) …; test: competition EIA, HBcAg coated 1 ug/ml, peptide 6.25 ug/ml before mAb 4-2 (competitor); OD of bound mAb
[15] = molecular target: T1, Full length recombinant HBcAg (rHBcAg) …; test: competition EIA, HBcAg coated 5 ug/ml, peptide 6.25 ug/ml together with mAb 4-2 (competitor); OD of bound mAb
[16] = molecular target: T1, Full length recombinant HBcAg (rHBcAg) …; test: competition EIA, HBcAg coated 5 ug/ml, peptide 200 ug/ml together with mAb 4-2 (competitor); OD of bound mAb
[17] = molecular target: T1, Full length recombinant HBcAg (rHBcAg) …; test: competition EIA, HBcAg coated 1 ug/ml, peptide 25 ug/ml before mAb 4-2 (competitor); OD of bound mAb
[18] = molecular target: T2, truncated recombinant form of HBeAg …; test: EIA, support-bound peptide, HBeAg 1.25 ug/ml
[19] = molecular target: T1, Full length recombinant HBcAg (rHBcAg) …; test: EIA, support-bound peptide, HBcAg 2 ug/well
[20] = molecular target: T1, Full length recombinant HBcAg (rHBcAg) …; test: EIA, support-bound peptide, HBcAg 2.5 ug/ml
[21] = molecular target: T1, Full length recombinant HBcAg (rHBcAg) …; test: EIA, support-bound peptide, HBcAg 5 ug/ml
[22] = molecular target: T1, Full length recombinant HBcAg (rHBcAg) …; test: EIA, support-bound peptide, HBcAg 0.67 ug/ml
[23] = molecular target: T1, Full length recombinant HBcAg (rHBcAg) …; test: EIA, peptide coated 6.25 ug/ml, HBcAg 10 ug/ml

T2 sequence (P03146 1-150): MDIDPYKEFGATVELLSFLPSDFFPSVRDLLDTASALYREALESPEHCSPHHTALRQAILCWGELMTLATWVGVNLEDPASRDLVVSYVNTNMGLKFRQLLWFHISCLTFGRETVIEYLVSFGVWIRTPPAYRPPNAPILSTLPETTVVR
T1 sequence (P03146 whole entry, the tested form may be a part): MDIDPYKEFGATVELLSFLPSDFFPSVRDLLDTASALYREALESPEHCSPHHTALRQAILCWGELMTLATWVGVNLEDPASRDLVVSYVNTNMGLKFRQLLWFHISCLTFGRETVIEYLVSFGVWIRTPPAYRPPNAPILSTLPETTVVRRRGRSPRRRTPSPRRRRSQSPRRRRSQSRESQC

Binder	OD at 490 nm [1]	OD at 490 nm [2]	OD at 490 nm [3]	OD [4]	OD [5]	OD [6]	OD at 490 nm [7]	OD [8]	OD [9]	OD [10]	OD [11]	OD at 405 nm [12]	OD at 490 nm [13]	OD at 490 nm [14]	OD at 490 nm [15]	OD at 490 nm [16]	OD at 490 nm [17]	OD [18]	OD at 405 nm [19]	OD [20]	other results
ISCRASQSVSTSSYSYMHWY [ISCRASQSVSTSSYSYMHWY (SEQ. ID. No. 17)]	0.305 OD	0.38 OD	0.37 OD	0.046 OD	0.132 OD	0.636 OD	1.44 OD	0.569 OD	0.102 OD	0.117 OD	2.66 OD	0.156 OD	1.46 OD	0.37 OD	1.26 OD	1.47 OD	0.439 OD	0.056 OD	2.48 OD	0.252 OD	OD [21]: 0.633 OD; OD [22]: 0.039 OD; OD [23]: 0.63 OD
CKASGYSFTGYNMNWVKQSH (also called Peptide # 26) [CKASGYSFTGYNMNWVKQSH (SEQ. ID. No. 29)]	0.201 OD	0.357 OD	0.28 OD	0.027 OD	0.091 OD	0.181 OD	1.27 OD	0.198 OD	0.063 OD	0.038 OD	1.48 OD	0.053 OD	0.947 OD	0.351 OD	1.2 OD	0.341 OD	0.383 OD	0.026 OD	2.29 OD	0.101 OD	OD [21]: 0.245 OD; OD [22]: 0.028 OD; OD [23]: 0.156 OD
VKPGASVKISCKASGYSFTG (also called Peptide # 25) [VKPGASVKISCKASGYSFTG (SEQ. ID. No. 28)]	0.173 OD	0.339 OD	0.274 OD	0.022 OD	0.05 OD	0.569 OD	1.21 OD	0.766 OD	0.115 OD	0.058 OD	2.65 OD	0.097 OD	0.91 OD	0.329 OD	1.18 OD	0.302 OD	0.359 OD	0.034 OD	3.13 OD	0.159 OD	OD [21]: 0.359 OD; OD [22]: 0.036 OD; OD [23]: 0.298 OD
VKPGASVKLSCKASGYIFTS (also called Peptide # 2; Pept. #2) [VKPGASVKLSCKASGYIFTS (SEQ. ID. No. 5)]	0.078 OD	0.331 OD	0.083 OD	0.081 OD	0.096 OD	1.04 OD	0.824 OD	1.22 OD	0.063 OD	0.155 OD	3.45 OD	0.269 OD	0.194 OD	0.336 OD	0.867 OD	0.139 OD	0.341 OD	0.043 OD	3.69 OD	0.374 OD	OD [21]: 0.989 OD; OD [22]: 0.034 OD; OD [23]: 0.597 OD
LAVSLGQRATISCRASQSVS [LAVSLGQRATISCRASQSVS (SEQ. ID. No. 16)]	0.299 OD	0.365 OD	0.345 OD	0.024 OD	0.038 OD	0.276 OD	1.04 OD	0.434 OD	0.03 OD	0.079 OD	2.63 OD	0.128 OD	0.891 OD	0.35 OD	0.979 OD	0.859 OD	0.429 OD	0.023 OD	3.11 OD	0.195 OD	OD [21]: 0.501 OD; OD [22]: 0.028 OD; OD [23]: 0.388 OD
